T1: G9a and GLP (Homo sapiens, UniProt Q96KQ7+Q9H9B1)
T1 sequence (Q96KQ7 2-1210 limits assumed): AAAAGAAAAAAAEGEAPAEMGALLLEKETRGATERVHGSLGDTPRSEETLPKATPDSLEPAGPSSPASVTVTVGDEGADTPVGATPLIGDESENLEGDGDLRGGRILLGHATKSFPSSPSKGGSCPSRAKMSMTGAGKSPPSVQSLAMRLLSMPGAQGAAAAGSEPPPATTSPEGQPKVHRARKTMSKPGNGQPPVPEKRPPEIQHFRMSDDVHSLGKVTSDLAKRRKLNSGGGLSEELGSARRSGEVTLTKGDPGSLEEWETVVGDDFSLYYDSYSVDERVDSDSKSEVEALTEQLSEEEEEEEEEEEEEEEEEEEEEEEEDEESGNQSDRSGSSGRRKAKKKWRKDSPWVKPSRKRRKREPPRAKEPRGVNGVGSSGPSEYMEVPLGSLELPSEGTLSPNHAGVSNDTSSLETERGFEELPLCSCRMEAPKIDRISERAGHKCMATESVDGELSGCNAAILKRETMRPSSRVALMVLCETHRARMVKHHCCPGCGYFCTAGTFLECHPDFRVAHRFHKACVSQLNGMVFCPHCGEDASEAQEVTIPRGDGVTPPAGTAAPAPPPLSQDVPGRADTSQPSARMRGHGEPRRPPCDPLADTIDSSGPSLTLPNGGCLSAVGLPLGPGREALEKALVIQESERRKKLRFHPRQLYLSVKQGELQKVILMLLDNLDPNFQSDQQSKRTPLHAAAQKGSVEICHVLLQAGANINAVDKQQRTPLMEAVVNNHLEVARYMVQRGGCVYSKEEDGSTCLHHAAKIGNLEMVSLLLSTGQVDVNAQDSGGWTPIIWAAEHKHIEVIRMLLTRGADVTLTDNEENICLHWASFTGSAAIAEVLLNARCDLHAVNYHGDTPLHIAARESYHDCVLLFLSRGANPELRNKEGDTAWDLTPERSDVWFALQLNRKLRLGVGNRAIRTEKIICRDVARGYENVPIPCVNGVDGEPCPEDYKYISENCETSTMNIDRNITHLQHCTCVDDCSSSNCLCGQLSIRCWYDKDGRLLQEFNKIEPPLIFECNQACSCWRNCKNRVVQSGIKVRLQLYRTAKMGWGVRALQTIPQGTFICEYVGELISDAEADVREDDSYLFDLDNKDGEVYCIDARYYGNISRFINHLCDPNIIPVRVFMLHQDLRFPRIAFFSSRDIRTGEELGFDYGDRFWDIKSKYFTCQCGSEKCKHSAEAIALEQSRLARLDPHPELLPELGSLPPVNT
T1 sequence (Q9H9B1 2-1298 limits assumed): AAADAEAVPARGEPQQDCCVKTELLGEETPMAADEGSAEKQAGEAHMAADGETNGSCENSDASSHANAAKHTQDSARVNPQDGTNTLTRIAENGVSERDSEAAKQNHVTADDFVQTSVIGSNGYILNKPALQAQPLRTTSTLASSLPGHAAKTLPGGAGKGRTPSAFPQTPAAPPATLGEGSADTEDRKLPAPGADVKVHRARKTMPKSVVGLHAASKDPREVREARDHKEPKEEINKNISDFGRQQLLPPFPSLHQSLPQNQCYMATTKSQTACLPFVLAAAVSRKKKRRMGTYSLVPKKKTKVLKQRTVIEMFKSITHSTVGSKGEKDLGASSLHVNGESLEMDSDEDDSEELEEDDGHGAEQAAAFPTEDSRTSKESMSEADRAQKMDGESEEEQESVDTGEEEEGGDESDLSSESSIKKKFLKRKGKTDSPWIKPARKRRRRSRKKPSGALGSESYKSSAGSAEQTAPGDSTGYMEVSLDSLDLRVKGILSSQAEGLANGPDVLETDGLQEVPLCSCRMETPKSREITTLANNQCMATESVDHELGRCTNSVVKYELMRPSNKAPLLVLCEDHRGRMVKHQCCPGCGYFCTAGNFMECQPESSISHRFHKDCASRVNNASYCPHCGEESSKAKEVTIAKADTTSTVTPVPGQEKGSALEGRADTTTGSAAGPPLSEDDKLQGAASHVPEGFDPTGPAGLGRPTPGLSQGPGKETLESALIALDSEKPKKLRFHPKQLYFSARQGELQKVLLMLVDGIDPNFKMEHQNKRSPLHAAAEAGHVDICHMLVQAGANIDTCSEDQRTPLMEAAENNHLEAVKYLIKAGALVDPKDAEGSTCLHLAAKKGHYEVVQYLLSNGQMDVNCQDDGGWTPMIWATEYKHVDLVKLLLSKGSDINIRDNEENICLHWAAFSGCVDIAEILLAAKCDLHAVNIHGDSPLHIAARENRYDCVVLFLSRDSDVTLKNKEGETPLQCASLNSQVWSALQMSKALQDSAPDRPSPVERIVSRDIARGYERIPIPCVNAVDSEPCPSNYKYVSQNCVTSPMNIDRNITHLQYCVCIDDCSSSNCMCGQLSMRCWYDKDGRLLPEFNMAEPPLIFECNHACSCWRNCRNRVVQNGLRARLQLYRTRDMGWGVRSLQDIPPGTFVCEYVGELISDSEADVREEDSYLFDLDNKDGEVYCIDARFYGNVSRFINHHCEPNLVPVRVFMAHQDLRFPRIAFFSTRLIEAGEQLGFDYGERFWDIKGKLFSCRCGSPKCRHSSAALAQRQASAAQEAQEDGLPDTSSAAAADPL

B1: HNRNPH2 (protein, UniProt P55795 1-449, looked up)
Heterogeneous nuclear …: MMLSTEGREGFVVKVRGLPWSCSADEVMRFFSDCKIQNGTSGIRFIYTREGRPSGEAFVELESEEEVKLALKKDRETMGHRYVEVFKSNSVEMDWVLKHTGPNSPDTANDGFVRLRGLPFGCSKEEIVQFFSGLEIVPNGMTLPVDFQGRSTGEAFVQFASQEIAEKALKKHKERIGHRYIEIFKSSRAEVRTHYDPPRKLMAMQRPGPYDRPGAGRGYNSIGRGAGFERMRRGAYGGGYGGYDDYGGYNDGYGFGSDRFGRDLNYCFSGMSDHRYGDGGSSFQSTTGHCVHMRGLPYRATENDIYNFFSPLNPMRVHIEIGPDGRVTGEADVEFATHEDAVAAMAKDKANMQHRYVELFLNSTAGTSGGAYDHSYVELFLNSTAGASGGAYGSQMMGGMGLSNQSSYGGPASQQLSGGYGGGYGGQSSMSGYDQVLQENSSDYQSNLA
B2: SF3B2 (protein, UniProt Q13435 1-895, looked up)
Splicing factor 3B subunit 2: MATEHPEPPKAELQLPPPPPPGHYGAWAAQELQAKLAEIGAPIQGNREELVERLQSYTRQTGIVLNRPVLRGEDGDKAAPPPMSAQLPGIPMPPPPLGLPPLQPPPPPPPPPPGLGLGFPMAHPPNLGPPPPLRVGEPVALSEEERLKLAQQQAALLMQQEERAKQQGDHSLKEHELLEQQKRAAVLLEQERQQEIAKMGTPVPRPPQDMGQIGVRTPLGPRVAAPVGPVGPTPTVLPMGAPVPRPRGPPPPPGDENREMDDPSVGPKIPQALEKILQLKESRQEEMNSQQEEEEMETDARSSLGQSASETEEDTVSVSKKEKNRKRRNRKKKKKPQRVRGVSSESSGDREKDSTRSRGSDSPAADVEIEYVTEEPEIYEPNFIFFKRIFEAFKLTDDVKKEKEKEPEKLDKLENSAAPKKKGFEEEHKDSDDDSSDDEQEKKPEAPKLSKKKLRRMNRFTVAELKQLVARPDVVEMHDVTAQDPKLLVHLKATRNSVPVPRHWCFKRKYLQGKRGIEKPPFELPDFIKRTGIQEMREALQEKEEQKTMKSKMREKVRPKMGKIDIDYQKLHDAFFKWQTKPKLTIHGDLYYEGKEFETRLKEKKPGDLSDELRISLGMPVGPNAHKVPPPWLIAMQRYGPPPSYPNLKIPGLNSPIPESCSFGYHAGGWGKPPVDETGKPLYGDVFGTNAAEFQTKTEEEEIDRTPWGELEPSDEESSEEEEEEESDEDKPDETGFITPADSGLITPGGFSSVPAGMETPELIELRKKKIEEAMDGSETPQLFTVLPEKRTATVGGAMMGSTHIYDMSTVMSRKGPAPELQGVEVALAPEELELDPMAMTQKYEEHVREQQAQVEKEDFSDMVAEHAAKQKQKKRKAQPQDSRGGSKKYKEFKF
B3: ZC3HAV1 (protein, UniProt Q7Z2W4 2-902, looked up)
Zinc finger CCCH-type …: ADPEVCCFITKILCAHGGRMALDALLQEIALSEPQLCEVLQVAGPDRFVVLETGGEAGITRSVVATTRARVCRRKYCQRPCDNLHLCKLNLLGRCNYSQSERNLCKYSHEVLSEENFKVLKNHELSGLNKEELAVLLLQSDPFFMPEICKSYKGEGRQQICNQQPPCSRLHICDHFTRGNCRFPNCLRSHNLMDRKVLAIMREHGLNPDVVQNIQDICNSKHMQKNPPGPRAPSSHRRNMAYRARSKSRDRFFQGSQEFLASASASAERSCTPSPDQISHRASLEDAPVDDLTRKFTYLGSQDRARPPSGSSKATDLGGTSQAGTSQRFLENGSQEDLLHGNPGSTYLASNSTSAPNWKSLTSWTNDQGARRKTVFSPTLPAARSSLGSLQTPEAVTTRKGTGLLSSDYRIINGKSGTQDIQPGPLFNNNADGVATDITSTRSLNYKSTSSGHREISSPRIQDAGPASRDVQATGRIADDADPRVALVNDSLSDVTSTTSSRVDDHDSEEICLDHLCKGCPLNGSCSKVHFHLPYRWQMLIGKTWTDFEHMETIEKGYCNPGIHLCSVGSYTINFRVMSCDSFPIRRLSTPSSVTKPANSVFTTKWIWYWKNESGTWIQYGEEKDKRKNSNVDSSYLESLYQSCPRGVVPFQAGSRNYELSFQGMIQTNIASKTQKDVIRRPTFVPQWYVQQMKRGPDHQPAKTSSVSLTATFRPQEDFCFLSSKKYKLSEIHHLHPEYVRVSEHFKASMKNFKIEKIKKIENSELLDKFTWKKSQMKEEGKLLFYATSRAYVESICSNNFDSFLHETHENKYGKGIYFAKDAIYSHKNCPYDAKNVVMFVAQVLVGKFTEGNITYTSPPPQFDSCVDTRSNPSVFVIFQKDQVYPQYVIEYTEDKACVIS
B4: PDCD2L (protein, UniProt Q9BRP1 2-358, looked up)
Programmed cell death protein …: AAVLKPVLLGLRDAPVHGSPTGPGAWTASKLGGIPDALPTVAAPRPVCQRCGQPLALVVQVYCPLEGSPFHRLLHVFACACPGCSTGGARSWKVFRSQCLQVPEREAQDAQKQGNSLAAEDWCEGADDWGSDTEEGPSPQFTLDFGNDASSAKDVDWTARLQDLRLQDAVLGAAHPVPPGLPLFLPYYICVADEDDYRDFVNLDHAHSLLRDYQQREGIAMDQLLSQSLPNDGDEKYEKTIIKSGDQTFYKFMKRIAACQEQILRYSWSGEPLFLTCPTSEVTELPACSQCGGQRIFEFQLMPALVSMLKSANLGLSVEFGTILVYTCEKSCWPPNHQTPMEEFCIIQEDPDELLFK

These molecules were tested against T1, G9a and GLP (assay: Triple SILAC pull-down after UNC0638 treatment of 293T cells, DMSO/UNC0638 ratio of protein captured by 3×MBT). Settings: SILAC ratio DMSO/UNC0638 of protein pulled down with 3xMBT; UNC0638 in heavy SILAC media.
Assay type: cell-based
Design: cells were treated for 24 hours with UNC0638 at 2.5 μM or DMSO vehicle control; endogenous in cells; host or cells: HEK 293T
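Throughout, for 3xMBT/D355N UNC Heavy: proteins quantified with MaxQuant, requiring at least two unique peptides and quantification in both label directions, normalized to the mean of proteins from a digested loading control.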
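Throughout, for 3xMBT/D355N UNC Light: proteins quantified with MaxQuant, requiring at least two unique peptides and quantification in both label directions, normalized to the mean of proteins from a digested loading control.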
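Throughout, for Relative to UNC0638 Average: mass spectrometry (Q-Exactive) SILAC quantitation, DMSO/UNC0638 ratio computed after subtracting 3×MBTD355N mutant pull-down background, only proteins with at least twofold 3×MBT over mutant signal considered.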
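Throughout, for Relative to UNC0638 UNC Heavy: mass spectrometry (Q-Exactive) SILAC quantitation, DMSO/UNC0638 ratio computed after subtracting 3×MBTD355N mutant pull-down background, only proteins with at least twofold 3×MBT over mutant signal considered.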
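Throughout, for Relative to UNC0638 UNC Light: mass spectrometry (Q-Exactive) SILAC quantitation, DMSO/UNC0638 ratio computed after subtracting 3×MBTD355N mutant pull-down background, only proteins with at least twofold 3×MBT over mutant signal considered.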

| Relative to UNC0638 UNC Heavy [log base 2] | Molecule |
| --- | --- |
| 0.18 | B1 |
| 0.17 | B2 |
| −0.16 | B3 |
| 0.22 | B4 |

Same assay, conditions: SILAC ratio DMSO/UNC0638 of protein pulled down with 3xMBT; UNC0638 in light SILAC media

| Relative to UNC0638 UNC Light [log base 2] | Molecule |
| --- | --- |
| 0.32 | B1 |
| 0.33 | B2 |
| 0.65 | B3 |
| 0.28 | B4 |

Same assay, conditions: average of UNC Light and UNC Heavy experiments

| Relative to UNC0638 Average [log base 2] | Molecule |
| --- | --- |
| 0.25 | B1 |
| 0.25 | B2 |
| 0.25 | B3 |
| 0.25 | B4 |

Each molecule was assayed on 3×MBT domain of L3MBTL1 (assay: Triple SILAC pull-down, 3xMBT/3xMBTD355N ratio (cytoplasmic, nuclear and chromatin fractions of 293T cells)). Settings: SILAC ratio, pull-down 3xMBT vs 3xMBTD355N; experiment with UNC0638 in heavy SILAC media.
Assay type: binding, human

| Molecule | 3xMBT/D355N UNC Heavy [log base 2] |
| --- | --- |
| B1 | 1.02 |
| B2 | 3.89 |
| B3 | 2.03 |
| B4 | 2.68 |

Same assay, conditions: SILAC ratio, pull-down 3xMBT vs 3xMBTD355N; experiment with UNC0638 in light SILAC media

| Molecule | 3xMBT/D355N UNC Light [log base 2] |
| --- | --- |
| B1 | 2.68 |
| B2 | 3.33 |
| B3 | 1.92 |
| B4 | 3.19 |
